Experimental data as given in patent publication US7648964B2, “Use of lacritin in promoting ocular cell survival” (University of Virginia Patent Foundation, priority 2004, dated 2010).

Columns and labels:
[1] = tested on: p42 and p44 MAPK (MAPK1 and MAPK3); assay: p42/p44 MAPK activation blot in HSG cells; format: cell-based, human
Method: For phosphotyrosine blotting and mitogenesis assays, cells in serum-containing media were seeded overnight in 24-well plates at a density of 0.5×10^5 cells/mm^2 corresponding to 20-30% confluency after cell attachment, incubated in serum-free media without supplements for 24 h (phosphotyrosine) or washed with serum-free media without supplements three times (mitogenesis) and incubated with lacritin (1-1000 nM), or positive controls EGF (1.6 nM) and 10% fetal bovine serum, or negative controls bovine serum albumin or no additive in serum-free media without supplements for the indicated times (phosphotyrosine) or 30 h (mitogenesis). […] After washing, bound antibodies were detected with peroxidase-labeled secondary antibody and ECL. […] Incorporation was stopped with ice-cold phosphate buffered saline and followed by addition of cold and then room temperature trichloracetic acid (10%) for 10 min each, washing of cells with phosphate buffered saline, solubilization with 1 N sodium hydroxide, neutralization with 1 N hydrochloric acid, addition of scintillation fluid and then quantitation in a scintillation counter. […] Seventy-two hours post-transfection, mitogenesis was assessed by co-addition of 10 […] lacritin and [^3H]-thymidine (2 mCi/ml) (Amersham, Piscataway N.J.) for 24 hrs. […]

PLD = assay: Endogenous PLD activity in HSG cells; format: cell-based, human; conditions: bell-shaped activation curve
Method: We measured endogenous PLD activity after lacritin addition and obtained a bell-shaped activation curve that was optimal at 10 nM lacritin, thus recapitulating the same dose dependency observed for mitogenesis, PKCα translocation and PKCα dephosphorylation. To determine whether PKCα was upstream of PLD in lacritin signaling, cells were transfected with D7 siRNA. […] Transiently hypophosphorylated perinuclear Golgi PKCα appears to have at least two roles. It complexes with PLCγ2 leading to IP3 generation and calcium mobilization. It also activates PLD1.

[2] = tested on: human submandibular ductal ('HSG') cells; assay: HSG ductal cell number in serum-free medium after four days; format: cell-based; conditions: BSA 10 ng/ml control
Method: FIGS. 2A and 2B represent lacritin-induced proliferation and tyrosine phosphorylation. FIG. 2A is a graphic representation of the number of human salivary gland (HSG) cells was determined four days after administering various amounts of lacritin (0 to 10 ng/ml of lacritin) to HSG cells in serum-free medium. FIG. 2B is a bar graph representing the proliferation of HSG cells upon administration of BSA (lane 1; 10 ng/ml) or serum (lane 2; 10%) was added for the same period of time. All experiments were performed on laminin-1-(0.05 μM) coated wells.
Quiescent human submandibular ductal (‘HSG’) cells were cultured in serum-free media containing increasing amounts of lacritin and cell proliferation was studied.

[3] = tested on: 48 kDa band in rat lacrimal cells; assay: Tyrosine phosphorylation of 48 kDa band, rat lacrimal cells; format: cell-based
Method: Freshly isolated rat lacrimal acinar cells, and HSG (human salivary gland) ductal and HCE (human corneal epithelial) cell lines were used to study lacritin function. For secretion studies, rat acinar cells were plated serum-free overnight on wells co-coated with 0.05 μM laminin 1 (to ensure adhesion) and 0 to 20 μM lacritin, or alternatively with laminin-1 (0.05 μM) and treated the next day with serum-free medium containing 0 to 162 ng/ml of soluble lacritin for four hours. Unstimulated and stimulated (carbachol 10^−4 M/VIP 10^−8 M) secretions were then collected, assessed (peroxidase assay) and normalized to μg cellular DNA. To study tyrosine phosphorylation, overnight serum-free cultures of both rat lacrimal acinar and HSG cells were washed and treated with 10 ng/ml of soluble lacritin for 0.5, 2.5, 10, and 30 minutes. Py(20) anti-phosphotyrosine antibody immunoprecipitation of cell lysates was then examined in Western blots of 7% SDS PAGE gels using Py(20) and ECL for detection. […] Using an inverted Zeiss 510 LSM for visualization, 50 second baseline images were first recorded. While the laser was running, lacritin was added (final concentration 4 and 40 ng/ml) and the response continually monitored every 786 msec for a minimum of 200 sec.

B1: lacritin: recombinant human lacritin from E. coli; mature 119 residue fragment (SEQ ID NO:10) of native lacritin SEQ ID NO:4 (protein, listed as Homo sapiens)
chain: EDASSDSTGADPAQEAGTSKPNEEISGPAEPASPPETTTTAQETSAAAVQGTAKVTSSRQELNPLKSIVEKSILLTEQALAKAGKGMHGGVPGGKQFIENGSEFAQKLLKKFSLLKPWA
activation of p42 and p44 MAPK [1]: no activation | concentration of optimal PLD activation (PLD): 10 nM | ductal cell number relative to BSA negative control [2]: more than twofold | tyrosine phosphorylation of a 48 kDa band [3]: promoted the transient tyrosine phosphorylation
